This data set deals with the molecule itself. The experiment in a line: crystal structure.

B1: Yersinia pestis cyclic AMP (cAMP) receptor protein (Crp) (natural protein)
chain: MVLGKPQTDPTLEWFLSHCHIHKYPSKSTLIHQGEKAETLYYIVKGSVAVLIKDEEGKEMILSYLNQGDFIGELGLFEEGQERSAWVRAKTACEVAEISYKKFRQLIQVNPDILMRLSSQMANRLQITSEKVGNLAFLDVTGRIAQTLLNLAKQPDAMTHPDGMQIKITRQEIGQIVGCSRETVGRILKMLEDQNLISAHGKTIVVYGTR
notes: also called Y. pestis Crp
The stoichiometry N is a count of units in the complex or per binding partner. Regarding B1, the “stoichiometry N” value was 2.

The values are drawn from PMC6867900, “The Cyclic AMP Receptor Protein Regulates Quorum Sensing and Global Gene Expression in Yersinia pestis during Planktonic Growth and Growth in Biofilms” (mBio, 2019).
